The target of one data set is LlAdhA (Lactococcus lactis, UniProt Q9CEN0, Y50F/N110S/I212T/L264V). The data set can be described thus: NADH consumption at […] nm. The following applies: read-out: LlAdhA^29C8 / KM; 200 µM NADH; 100 mM Tris pH 7, 1 mM DTT; 25°C.
The next data set concerns O=Cc1ccc(CO)o1. The data set can be described thus: purified protein. The following applies: 200 µM NADH, 100 mM Tris pH 7, 1 mM DTT, 25°C.
A further data set deals with CC=O. The data set can be described thus: purified protein. The conditions noted are these: 200 µM NADH, 100 mM Tris pH 7, 1 mM DTT, 25°C.
The subject of another data set is CC(C)C=O. In words: purified protein. The following applies: 200 µM NADH, 100 mM Tris pH 7, 1 mM DTT, 25°C.
A further data set has as its system O=CC=Cc1ccccc1. In words: purified protein. The data set is classed as biochemical, Lactococcus lactis. The following applies: 200 µM NADH, 100 mM Tris pH 7, 1 mM DTT, 25°C.
Another data set relates to O=Cc1ccco1. In words: purified protein. The data set is classed as biochemical, Lactococcus lactis. The following applies: 200 µM NADH, 100 mM Tris pH 7, 1 mM DTT, 25°C.

Take `O=Cc1ccco1` [2-furaldehyde]: the Km at LlAdhA amounted to 200 µM.
Usually kcat stands for the maximal rate divided by the concentration of active sites. By kcat/Km is commonly meant the turnover number divided by the Michaelis constant. For the compound “LlAdhA (Lactococcus lactis subsp. lactis Il1403)”, the Km in the data set with O=Cc1ccc(CO)o1 was determined as 22000 µM; in the data set with CC=O it was 400 µM; in the data set with CC(C)C=O it was 12000 ± 1000 µM; in the data set with O=CC=Cc1ccccc1 it was 700 µM; in the data set with O=Cc1ccco1, 390 µM. In addition, the turnover number (kcat) turned out to be 19 s⁻¹ in the data set on O=Cc1ccc(CO)o1; 35 s⁻¹ in the data set with CC=O; 30 ± 1 s⁻¹ in the data set on CC(C)C=O; 27 s⁻¹ in the data set on O=CC=Cc1ccccc1; 22 s⁻¹ in the data set on O=Cc1ccco1. Also, the kcat/Km with O=Cc1ccc(CO)o1 was determined as 880 M⁻¹ s⁻¹; in the data set on CC=O it was 94000 M⁻¹ s⁻¹; in the data set with CC(C)C=O, 2800 ± 200 M⁻¹ s⁻¹; with O=CC=Cc1ccccc1, 39000 M⁻¹ s⁻¹; in the data set with O=Cc1ccco1, 57000 M⁻¹ s⁻¹.
Consider “LlAdhA (Lactococcus lactis subsp. lactis Il1403; I212T/L264V/N110S/Y50F)”, for which the Km in the data set on O=Cc1ccc(CO)o1 stood at 570 µM; in the data set on CC=O, 920 µM; in the data set with CC(C)C=O, 680 ± 70 µM. The values for the kcat with O=Cc1ccc(CO)o1, with CC=O and in the data set with CC(C)C=O were 29 s⁻¹, 58 s⁻¹ and 300 ± 4 s⁻¹, respectively. The values for the kcat/Km in the data set on O=Cc1ccc(CO)o1, in the data set with CC=O and in the data set with CC(C)C=O were 51000 M⁻¹ s⁻¹, 63000 M⁻¹ s⁻¹ and 440000 ± 50000 M⁻¹ s⁻¹, respectively.
Turning to “LlAdhA (Lactococcus lactis subsp. lactis Il1403; I212T/L264V/Y50F)”, in the data set on O=Cc1ccc(CO)o1, the Km turned out to be 670 µM, the kcat was 23 s⁻¹ and the kcat/Km turned out to be 34000 M⁻¹ s⁻¹. Moreover, in the data set with CC=O, the Km was determined as 500 µM, the kcat stood at 31 s⁻¹ and the kcat/Km was 57000 M⁻¹ s⁻¹. For the same compound, in the data set on CC(C)C=O, the Km was determined as 1700 ± 10 µM, the kcat stood at 140 ± 1 s⁻¹ and the kcat/Km came to 82000 ± 1000 M⁻¹ s⁻¹.
As for “LlAdhA (Lactococcus lactis subsp. lactis Il1403; L264V/Y50F)”, in the data set on CC(C)C=O, the Km worked out at 1600 ± 200 µM, the kcat was determined as 50 ± 1 s⁻¹ and the kcat/Km came to 32000 ± 4000 M⁻¹ s⁻¹.

The values are drawn from PMC3542407 (Journal of biotechnology, 2012).
